Experimental data published in IntAct's records for PubMed 29541021.

Key:
1433f_human YWHAH = 1433f_human YWHAH (UniProt Q04917)
dnm1l_human DNM1L = dnm1l_human DNM1L (UniProt O00429)
Chain of dnm1l_human DNM1L (O00429 whole entry): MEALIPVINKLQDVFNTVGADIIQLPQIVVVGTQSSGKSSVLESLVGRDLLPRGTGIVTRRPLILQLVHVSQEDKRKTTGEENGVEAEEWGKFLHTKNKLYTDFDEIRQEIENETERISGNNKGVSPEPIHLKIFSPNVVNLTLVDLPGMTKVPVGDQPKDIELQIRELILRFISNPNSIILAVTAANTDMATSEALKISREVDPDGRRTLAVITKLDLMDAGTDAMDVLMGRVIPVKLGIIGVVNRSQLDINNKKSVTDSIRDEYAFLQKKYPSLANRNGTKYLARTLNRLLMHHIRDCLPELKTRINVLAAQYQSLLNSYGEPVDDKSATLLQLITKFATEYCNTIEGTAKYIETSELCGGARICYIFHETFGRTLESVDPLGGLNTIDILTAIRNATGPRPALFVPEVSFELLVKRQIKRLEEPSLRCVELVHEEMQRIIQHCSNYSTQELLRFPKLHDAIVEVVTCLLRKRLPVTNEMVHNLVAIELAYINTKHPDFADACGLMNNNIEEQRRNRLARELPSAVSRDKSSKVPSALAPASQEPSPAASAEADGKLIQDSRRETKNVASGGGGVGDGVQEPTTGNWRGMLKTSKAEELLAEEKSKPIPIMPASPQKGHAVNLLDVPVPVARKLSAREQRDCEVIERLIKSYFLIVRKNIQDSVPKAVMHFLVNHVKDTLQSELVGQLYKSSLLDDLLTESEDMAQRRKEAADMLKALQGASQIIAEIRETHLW

Chain of 1433f_human YWHAH (Q04917 whole entry): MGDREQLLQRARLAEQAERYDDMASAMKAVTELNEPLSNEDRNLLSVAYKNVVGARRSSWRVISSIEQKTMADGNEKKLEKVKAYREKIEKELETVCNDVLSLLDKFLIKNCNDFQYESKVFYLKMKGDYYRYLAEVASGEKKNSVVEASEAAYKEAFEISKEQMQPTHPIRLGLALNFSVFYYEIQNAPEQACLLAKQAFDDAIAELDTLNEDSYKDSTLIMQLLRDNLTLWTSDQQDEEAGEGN

## Leucine-rich repeat serine/threonine-protein kinase 2 (Homo sapiens), Q5S007 E193K
1433f_human YWHAH
  effect of a mutation on the interaction: decreasing interaction strength
dnm1l_human DNM1L
  effect of a mutation on the interaction: increasing interaction strength
